The target of assay [1] is latent PDGF-DD (Homo sapiens, UniProt Q9GZP0). Nature of the assay: In vitro cleavage of recombinant latent PDGF-DD with purified tPA. The class given is biochemical. Details: Recombinant His6-tagged human PDGF-CC species and full-length PDGF-DD were expressed; made in house. To be noted: 0.2-20 μg/ml tPA, 4 hours at 37° C., CNBr activated fibrinogen. From the text: (§1) A cotransfection assay was established to identify serine proteases able to cleave and activate latent PDGF-CC. Expression plasmids encoding the relevant enzymes and full-length PDGF-C were cotransfected into COS-1 cells, and aliquots of the conditioned media from the transfectants were subjected to SDS-PAGE and immunoblotting using antibodies to the growth factor domain of PDGF-C. […] As a specificity control, the ability of tPA and NT to use full-length PDGF-DD as the substrate in the cotransfection assay was analysed. […] One difference in the latter results, as compared with the results from the cotransfection assay, was that purified tPA generated a second intermediate species of 32 kDa using latent PDGF-CC as the substrate. It is possible that this intermediate is the result of digestion by plasmin contamination in the tPA preparation, since the size of the fragment is similar to that of plasmincleaved PDGF-CC previously reported (Li et al, 2000).
Recombinant latent PDGF-CC and PDGF-DD were digested with human tPA in 100 mM Tris-HCl pH 7.5, 0.1% Tween 20, and 0.1 mg/ml CNBr activated fibrinogen (Sigma) for 4 hours at 37° C. using 0.2-20 μg/ml tPA purified from human melanoma cells (T7776, Sigma). The digestions were analyzed by SDS-PAGE under reducing conditions and immunoblotted using affinity-purified antibodies against PDGF-C and PDGF-D, respectively (see above).

Assay [2] deals with latent PDGF-CC (Homo sapiens, UniProt Q9NRA1). Briefly: Cotransfection assay in COS-1 cells: protease plus full-length PDGF-C. The class given is cell-based. Details: cotransfected with full-length PDGF-C (Li et al, 2000), full-length PDGF-D (Bergsten et al, 2001); expressed in transfected cells; host or cells: COS-1 cells. To be noted: COS-1 conditioned medium, immunoblot, 22 kDa species under reducing conditions.
Excerpt: as §1, with “2000). […]” for “2000).”
To test the endogenous expression of PDGF-CC, subconfluent AG1523 cells and primary fibroblast cultures were cultured in serum-free DMEM overnight. […] In the case of the primary cultures, total protein concentration was measured and normalized (Bradford, 1976). […]
A general note: In western blotting, separated proteins are transferred to a membrane and probed.

Sequence of latent PDGF-CC (Q9NRA1 23-345): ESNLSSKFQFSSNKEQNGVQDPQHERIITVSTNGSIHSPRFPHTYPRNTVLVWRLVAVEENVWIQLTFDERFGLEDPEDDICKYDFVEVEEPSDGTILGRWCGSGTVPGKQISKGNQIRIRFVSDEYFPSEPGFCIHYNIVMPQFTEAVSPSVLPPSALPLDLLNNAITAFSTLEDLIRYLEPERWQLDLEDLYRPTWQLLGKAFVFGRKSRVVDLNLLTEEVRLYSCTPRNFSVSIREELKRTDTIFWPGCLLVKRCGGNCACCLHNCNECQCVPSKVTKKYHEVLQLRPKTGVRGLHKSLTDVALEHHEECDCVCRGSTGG

For the substance “tPA: tissue plasminogen activator, secreted serine protease; expressed, purified from human melanoma cells or recombinant”, the “cleavage of recombinant latent PDGF-DD by purified tPA” value in assay [1] was “but not PDGF-DD, is a substrate for tPA”. Besides, the “cleavage of latent PDGF-CC by the coexpressed protease” value in assay [2] is “released the growth factor domain of latent PDGFCC”.
